Data reported in patent publication US20070054353A1 (published 2007).
Positions count from the first letter of the chain named.

T1: GST-TIF2.1 (UniProt Q15596 624-1287)
T1 construct: also called GST fused to TIF2.1; not shown: glutathione S-transferase (GST) tag of vector pGEX2T
T1 sequence (looked up): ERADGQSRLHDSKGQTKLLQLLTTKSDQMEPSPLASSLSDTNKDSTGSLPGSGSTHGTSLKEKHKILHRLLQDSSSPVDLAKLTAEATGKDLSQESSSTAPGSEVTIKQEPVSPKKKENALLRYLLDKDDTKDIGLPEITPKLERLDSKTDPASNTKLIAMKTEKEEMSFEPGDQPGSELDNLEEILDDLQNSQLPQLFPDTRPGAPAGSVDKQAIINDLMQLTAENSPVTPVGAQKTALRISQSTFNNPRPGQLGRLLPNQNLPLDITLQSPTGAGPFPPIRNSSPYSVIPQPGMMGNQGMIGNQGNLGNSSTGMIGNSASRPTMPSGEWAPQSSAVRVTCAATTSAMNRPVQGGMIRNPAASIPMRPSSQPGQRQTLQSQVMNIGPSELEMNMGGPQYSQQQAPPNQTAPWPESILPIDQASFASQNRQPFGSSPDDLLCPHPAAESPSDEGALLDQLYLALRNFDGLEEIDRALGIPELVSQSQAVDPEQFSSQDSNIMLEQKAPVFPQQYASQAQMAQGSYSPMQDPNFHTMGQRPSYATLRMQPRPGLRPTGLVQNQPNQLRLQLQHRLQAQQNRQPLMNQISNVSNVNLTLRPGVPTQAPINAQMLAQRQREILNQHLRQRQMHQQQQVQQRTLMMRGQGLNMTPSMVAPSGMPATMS

T2: ERα-EYFP fusion protein (UniProt P03372 1-595)
T2 construct: also called EYFP-ERα; not shown: EYFP (engineered fluorescent protein) of vector pEYFP-CMV
T2 sequence (looked up): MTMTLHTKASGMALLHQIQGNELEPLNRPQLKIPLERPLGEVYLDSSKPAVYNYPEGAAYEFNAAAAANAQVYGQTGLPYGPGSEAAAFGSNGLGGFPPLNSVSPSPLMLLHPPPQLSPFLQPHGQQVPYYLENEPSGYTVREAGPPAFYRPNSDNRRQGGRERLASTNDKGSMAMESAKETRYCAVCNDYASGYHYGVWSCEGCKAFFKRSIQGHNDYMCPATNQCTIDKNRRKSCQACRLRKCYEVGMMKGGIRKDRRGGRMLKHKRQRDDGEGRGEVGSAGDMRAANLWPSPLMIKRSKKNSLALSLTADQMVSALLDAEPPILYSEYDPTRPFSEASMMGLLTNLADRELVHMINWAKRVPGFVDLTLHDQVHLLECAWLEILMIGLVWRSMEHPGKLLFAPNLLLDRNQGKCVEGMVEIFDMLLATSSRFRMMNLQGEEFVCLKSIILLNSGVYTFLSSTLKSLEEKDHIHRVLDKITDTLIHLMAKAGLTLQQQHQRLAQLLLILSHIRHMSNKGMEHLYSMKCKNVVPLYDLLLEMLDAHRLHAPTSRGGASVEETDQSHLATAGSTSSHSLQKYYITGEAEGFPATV

B1: HE15 (receptor, UniProt P03372 1-282, looked up)
chain: MTMTLHTKASGMALLHQIQGNELEPLNRPQLKIPLERPLGEVYLDSSKPAVYNYPEGAAYEFNAAAAANAQVYGQTGLPYGPGSEAAAFGSNGLGGFPPLNSVSPSPLMLLHPPPQLSPFLQPHGQQVPYYLENEPSGYTVREAGPPAFYRPNSDNRRQGGRERLASTNDKGSMAMESAKETRYCAVCNDYASGYHYGVWSCEGCKAFFKRSIQGHNDYMCPATNQCTIDKNRRKSCQACRLRKCYEVGMMKGGIRKDRRGGRMLKHKRQRDDGEGRGEVGS
notes: range 1-282; also called ERα truncated to amino acid 282 in region D
B2: ER378 (receptor, UniProt P03372 1-378, looked up)
chain: MTMTLHTKASGMALLHQIQGNELEPLNRPQLKIPLERPLGEVYLDSSKPAVYNYPEGAAYEFNAAAAANAQVYGQTGLPYGPGSEAAAFGSNGLGGFPPLNSVSPSPLMLLHPPPQLSPFLQPHGQQVPYYLENEPSGYTVREAGPPAFYRPNSDNRRQGGRERLASTNDKGSMAMESAKETRYCAVCNDYASGYHYGVWSCEGCKAFFKRSIQGHNDYMCPATNQCTIDKNRRKSCQACRLRKCYEVGMMKGGIRKDRRGGRMLKHKRQRDDGEGRGEVGSAGDMRAANLWPSPLMIKRSKKNSLALSLTADQMVSALLDAEPPILYSEYDPTRPFSEASMMGLLTNLADRELVHMINWAKRVPGFVDLTLHDQVHL
notes: In vitro translated
B3: Flag-m1+2 (Flag-tagged LCoR mutated in both CtBP binding sites) (other, not shown: small tags and cut ends)
chain: MQRMIQQFAAEYTSKNSSTQDPSQPNSTKNQSLPKASPVTTSPTAATTQNPVLSKLLMADQDSKSQSEPSEQDGKSPCAGSTSLSHSPGCSSTQGNGRPGRPSQYRPDGLRSGDGVPPRSLQDGTREGFGHSTSLKVPLARSLQISEELLSRNQLSTAASLGPSGLQNHGQHLILSREASWAKPHYEFNLSRMKFRGNGALSNISDLPFLAENSAFPKMALQAKQDGKKDVSHSSPVDLKIPQVRGMDLSWESRTGDQYSYSSLVMGSQTESALSKKLRAILPKQSRKSMLDAGPDSWGSDAEQSTPGQPYPTSDQEGDPGSKQPRKKRGRYRQYNSEILEEAISVVMSGKMSVSKAQSIYGIPHSTLEYKVKERLGTLKNPPKKKMKLMRSEGPDVSVKIELDPQGEAAQSANESKNE
notes: also called LCoR derivative (m1+2)
B4: ERα A/B domain (receptor, UniProt P03372 1-180, looked up)
chain: MTMTLHTKASGMALLHQIQGNELEPLNRPQLKIPLERPLGEVYLDSSKPAVYNYPEGAAYEFNAAAAANAQVYGQTGLPYGPGSEAAAFGSNGLGGFPPLNSVSPSPLMLLHPPPQLSPFLQPHGQQVPYYLENEPSGYTVREAGPPAFYRPNSDNRRQGGRERLASTNDKGSMAMESAK
notes: range 1-180; also called ERα truncated to amino acid 180
B5: LCoR-LSKAA-rluc fusion protein (other)
chain: MQRMIQQFAAEYTSKNSSTQDPSQPNSTKNQSLPKASPVTTSPTAATTQNPVLSKAAMADQDSPLDLTVRKSQSEPSEQDGVLDLSTKKSPCAGSTSLSHSPGCSSTQGNGRPGRPSQYRPDGLRSGDGVPPRSLQDGTREGFGHSTSLKVPLARSLQISEELLSRNQLSTAASLGPSGLQNHGQHLILSREASWAKPHYEFNLSRMKFRGNGALSNISDLPFLAENSAFPKMALQAKQDGKKDVSHSSPVDLKIPQVRGMDLSWESRTGDQYSYSSLVMGSQTESALSKKLRAILPKQSRKSMLDAGPDSWGSDAEQSTPGQPYPTSDQEGDPGSKQPRKKRGRYRQYNSEILEEAISVVMSGKMSVSKAQSIYGIPHSTLEYKVKERLGTLKNPPKKKMKLMRSEGPDVSVKIELDPQGEAAQSANESKNE
notes: also called rluc-LCoR-LSKAA; not shown: Renilla luciferase (rluc) of vector pRL-CMV
B6: GST-LCoR (other)
chain: B5 chain with A56L, A57L
notes: also called GST fused to LCoR; not shown: glutathione S-transferase (GST) tag of vector pGEX2TK
B7: GST-LSKAA (other)
chain: B5 chain
notes: Positions 56 and 57 are counted from the printed motif start (53); also called GST-LCoR-LSKAA; GST fused to LCoR-LSKAA; not shown: glutathione S-transferase (GST) tag of vector pGEX2TK

Tests used:
GST-LCoR = molecular target: B6; test: GST pull-down
GST-TIF2.1 = molecular target: T1, GST-TIF2.1; test: GST pull-down, in vitro translated ER378
[1] = molecular target: CtBP1 (C-terminal binding protein 1) (human, UniProt Q13363 1-440); test: coimmunoprecipitation with anti-CtBP antibody from transfected MCF-7 cells
Description: For immunoprecipitation of endogenous CtBP, CtIP, Rb, or Bmi1, MCF-7 cells in 150 mm dishes were lysed 3 min at 4° C. in 1 ml of LB (150 mM NaCl/10 mM Tris-HCl pH 7.4/0.2 mM Na orthovanadate/1 mM EDTA/1 mM EGTA/1% Triton-100X/0.5% IGEPAL CA-630/protease inhibitor cocktail; Boehringer-Mannheim, Laval, Qc). Cell debris were pelleted by centrifugation (14,000 rpm, 5 min), and proteins immunoprecipitated with 4 μg of αCtBP or αCtIP or αRb or polyclonal rabbit αBMI1 or control rabbit or goat IgG at 4° C. overnight followed by 2 hours incubation at 4° C. with protein A agarose (for αCtBP, αBmi1, control rabbit IgG) or protein A+G agarose (for αCtIP or αRb or control goat IgG). Beads were washed (3×) with LB. […] For immunoprecipitation of tagged proteins, transfected MCF-7 cells were lysed 30 min at 4° C. in 1 ml of LB, 48 h after transfection. Supernatants were cleared, incubated overnight with 4 μg of aCtBP or α-Flag M2 antibody followed by 2 hours incubation with protein-A agarose or protein A+G agarose beads respectively. Beads were washed (3×) with LB and Western blotted as above. Dilutions of specific antibodies used for Western blotting were: α-CtBP1 , α-CtBP2 (1:100), α-Flag M2-peroxidase (1:100).

ERα-EYFP fusion protein = molecular target: T2, ERα-EYFP fusion protein; test: BRET in living COS-7 cells
Description: Cells were washed (2×) with PBS and harvested with 500 μl of PBS-5 mM EDTA. […] Readings were started immediately after coelenterazine H addition, and 10 repeated measures were taken.
BRET ratios were calculated as described in experimental procedures.

HDAC4 = molecular target: T3, HDAC4 (UniProt P56524 1-1084, limits assumed); test: GST pull-down, in vitro translated HDAC
T3 construct: also called histone deacetylase 4

HDAC1 = molecular target: T4, HDAC1 (UniProt Q13547 1-482); test: GST pull-down, in vitro translated HDAC
T4 construct: also called histone deacetylase 1
T4 sequence (Q13547 whole entry): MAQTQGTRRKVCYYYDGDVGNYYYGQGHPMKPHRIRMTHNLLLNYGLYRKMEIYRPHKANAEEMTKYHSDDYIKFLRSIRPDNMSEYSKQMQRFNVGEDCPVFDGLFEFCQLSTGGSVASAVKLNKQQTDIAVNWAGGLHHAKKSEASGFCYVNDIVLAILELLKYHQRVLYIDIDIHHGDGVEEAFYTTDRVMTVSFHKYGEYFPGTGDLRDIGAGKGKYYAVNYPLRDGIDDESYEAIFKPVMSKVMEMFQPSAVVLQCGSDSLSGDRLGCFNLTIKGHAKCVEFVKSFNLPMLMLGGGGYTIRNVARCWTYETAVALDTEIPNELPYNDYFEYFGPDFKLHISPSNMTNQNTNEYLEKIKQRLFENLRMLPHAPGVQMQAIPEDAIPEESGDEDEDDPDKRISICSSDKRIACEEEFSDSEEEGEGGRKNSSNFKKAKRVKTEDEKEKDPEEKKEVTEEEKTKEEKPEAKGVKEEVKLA

T3 sequence (P56524 whole entry): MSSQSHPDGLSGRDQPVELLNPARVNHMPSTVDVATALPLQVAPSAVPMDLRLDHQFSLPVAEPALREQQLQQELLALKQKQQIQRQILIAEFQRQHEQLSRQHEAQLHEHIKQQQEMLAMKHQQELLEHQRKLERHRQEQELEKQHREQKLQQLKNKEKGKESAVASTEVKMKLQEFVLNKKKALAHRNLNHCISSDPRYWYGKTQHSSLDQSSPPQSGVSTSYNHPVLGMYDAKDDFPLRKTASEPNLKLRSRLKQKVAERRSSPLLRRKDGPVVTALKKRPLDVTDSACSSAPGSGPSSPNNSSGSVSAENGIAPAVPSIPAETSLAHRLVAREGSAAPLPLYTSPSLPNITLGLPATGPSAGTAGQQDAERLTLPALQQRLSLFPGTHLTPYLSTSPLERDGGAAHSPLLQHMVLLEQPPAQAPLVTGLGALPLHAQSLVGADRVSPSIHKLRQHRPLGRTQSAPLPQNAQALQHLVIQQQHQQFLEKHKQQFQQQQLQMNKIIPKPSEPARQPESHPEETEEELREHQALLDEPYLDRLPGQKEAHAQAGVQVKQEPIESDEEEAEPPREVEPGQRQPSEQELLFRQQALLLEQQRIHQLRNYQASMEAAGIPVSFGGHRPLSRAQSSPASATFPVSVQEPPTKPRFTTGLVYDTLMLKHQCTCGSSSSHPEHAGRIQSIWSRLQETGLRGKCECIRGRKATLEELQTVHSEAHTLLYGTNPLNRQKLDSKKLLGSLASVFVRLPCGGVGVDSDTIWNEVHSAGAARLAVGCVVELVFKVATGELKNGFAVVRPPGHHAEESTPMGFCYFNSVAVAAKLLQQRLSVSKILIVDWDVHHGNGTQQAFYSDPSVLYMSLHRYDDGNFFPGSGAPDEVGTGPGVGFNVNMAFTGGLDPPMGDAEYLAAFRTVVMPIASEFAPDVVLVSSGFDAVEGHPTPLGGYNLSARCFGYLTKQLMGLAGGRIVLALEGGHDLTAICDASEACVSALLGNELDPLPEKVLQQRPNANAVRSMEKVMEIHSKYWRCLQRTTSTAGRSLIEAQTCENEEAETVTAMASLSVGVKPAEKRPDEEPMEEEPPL

Binder: B1
binding result (GST-LCoR): no binding

Binder: B2
binding result (GST-TIF2.1): no binding

Binder: B3
binding result [1]: no binding

Binder: B4
binding result (GST-LCoR): no binding

Binder: B5
fold reduction of hormone-independent interaction against wild-type LCoR (ERα-EYFP fusion protein): ~2 fold

Binder: B6
binding result (HDAC4): no binding
binding result (HDAC1): no binding

Binder: B7
binding result (HDAC4): no binding
binding result (HDAC1): no binding
